Data on 1 molecule can be found in patent publication US20190016778A1 (Xencor, published 2019).

The target in the assay is T1, human CD8 (captured on Octet biosensor) (human, UniProt P01732 22-182).
T1 construct: also called recombinant human CD8a
The experiment in a line: method not given; Octet (BLI) is the method of this example.

B1: humanized OKT8 variant (H2L1) (antibody)
chain 1: QVQLVQSGAEVKKPGASVKVSCKASGFNIKDTYIHWVRQAPGKGLEWMGRIDPANDNTLYASKFQGRVTITADTSINTAYMELSRLRSDDTAVYYCGRGYGYYVFDHWGQGTTVTVSSASTKGPSVFPLAPSSKSTSGGTAALGCLVKDYFPEPVTVSWNSGALTSGVHTFPAVLQSSGLYSLSSVVTVPSSSLGTQTYICNVNHKPSNTKVDKKVEPKSCDKTHTCPPCPAPPVAGPSVFLFPPKPKDTLMISRTPEVTCVVVDVKHEDPEVKFNWYVDGVEVHNAKTKPREEQYNSTYRVVSVLTVLHQDWLNGKEYKCKVSNKALPAPIEKTISKAKGQPREPQVYTLPPSREQMTKNQVKLTCLVKGFYPSDIAVEWESNGQPENNYKTTPPVLDSDGSFFLYSKLTVDKSRWQQGNVFSCSVMHEALHNHYTQKSLSLSPGK
chain 2: DIKMTQSPSSLSASVGDRVTITCRTSRSISQYLAWYQEKPGKTNKLLIYSGSTLQSGIPSRFSGSGSGTDFTLTISSLQPEDFATYYCQQHNENPLTFGAGTKLEIKRTVAAPSVFIFPPSDEQLKSGTASVVCLLNNFYPREAKVQWKVDNALQSGNSQESVTEQDSKDSTYSLSSTLTLSKADYEKHKVYACEVTHQGLSSPVTKSFNRGEC
chain 3: EPKSSDKTHTCPPCPAPPVAGPSVFLFPPKPKDTLMISRTPEVTCVVVDVKHEDPEVKFNWYVDGVEVHNAKTKPREEEYNSTYRVVSVLTVLHQDWLNGKEYKCKVSNKALPAPIEKTISKAKGQPREPQVYTLPPSREEMTKNQVSLTCDVSGFYPSDIAVEWESDGQPENNYKTTPPVLDSDGSFFLYSKLTVDKSRWEQGDVFSCSVMHEALHNHYTQKSLSLSPGK
For orientation: Kd means a measure of binding affinity in units of concentration. Lower therefore signals tighter binding. B1 registered a Kd of 12 nM.
